Results taken from the supplement of paper PMC10065799, “High-throughput profiling of sequence recognition by tyrosine kinases and SH2 domains using bacterial peptide display” (eLife, 2023).

How the values were obtained:
MERTK = MERTK (UniProt Q12866); test: phosphorylation enrichment, bacterial display (enrichment ratio); higher = better substrate or ligand; peptides without Tyr show the background
c-Abl (mouse) = test: as above
Jak2 = Jak2 (UniProt O60674); test: as above
c-Src = test: as above
EPHB1 = EPHB1 (UniProt P54762); test: as above
FGFR1 = FGFR1 (UniProt P11362); test: as above
Fer (mouse) = test: as above
Fyn = Fyn (UniProt P06241); test: as above
AncSZ = test: as above
FGFR3 = FGFR3 (UniProt P22607); test: as above
Fes = Fes (UniProt P07332); test: as above
EPHB2 = EPHB2 (UniProt P29323); test: as above
Hck = Hck (UniProt P08631); test: as above
SHP2-C SH2 = test: SH2 binding enrichment of the phosphorylated peptide, bacterial display (enrichment ratio); higher = better substrate or ligand; peptides without Tyr show the background
c-Src SH2 = test: as above
Grb2 SH2 = Grb2 SH2 (UniProt P62993); test: as above
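Wherever SH2 binding enrichment of the phosphorylated peptide, bacterial display is given: peptide library displayed on the E. coli surface as eCPX fusions, selected cells deep-sequenced, score is each peptide's frequency after selection divided by its frequency in the input.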
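Wherever phosphorylation enrichment, bacterial display is given: 11-residue human phosphosite peptides and single-mutation variants displayed on the E. coli surface, counted by deep sequencing, each peptide's frequency after selection divided by its frequency in the unselected input library; frequency after pTyr selection over input frequency; kinase dosed for 20-30% of maximal phosphorylation in three min.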

Jak2, sequence (O60674 whole entry, looked up): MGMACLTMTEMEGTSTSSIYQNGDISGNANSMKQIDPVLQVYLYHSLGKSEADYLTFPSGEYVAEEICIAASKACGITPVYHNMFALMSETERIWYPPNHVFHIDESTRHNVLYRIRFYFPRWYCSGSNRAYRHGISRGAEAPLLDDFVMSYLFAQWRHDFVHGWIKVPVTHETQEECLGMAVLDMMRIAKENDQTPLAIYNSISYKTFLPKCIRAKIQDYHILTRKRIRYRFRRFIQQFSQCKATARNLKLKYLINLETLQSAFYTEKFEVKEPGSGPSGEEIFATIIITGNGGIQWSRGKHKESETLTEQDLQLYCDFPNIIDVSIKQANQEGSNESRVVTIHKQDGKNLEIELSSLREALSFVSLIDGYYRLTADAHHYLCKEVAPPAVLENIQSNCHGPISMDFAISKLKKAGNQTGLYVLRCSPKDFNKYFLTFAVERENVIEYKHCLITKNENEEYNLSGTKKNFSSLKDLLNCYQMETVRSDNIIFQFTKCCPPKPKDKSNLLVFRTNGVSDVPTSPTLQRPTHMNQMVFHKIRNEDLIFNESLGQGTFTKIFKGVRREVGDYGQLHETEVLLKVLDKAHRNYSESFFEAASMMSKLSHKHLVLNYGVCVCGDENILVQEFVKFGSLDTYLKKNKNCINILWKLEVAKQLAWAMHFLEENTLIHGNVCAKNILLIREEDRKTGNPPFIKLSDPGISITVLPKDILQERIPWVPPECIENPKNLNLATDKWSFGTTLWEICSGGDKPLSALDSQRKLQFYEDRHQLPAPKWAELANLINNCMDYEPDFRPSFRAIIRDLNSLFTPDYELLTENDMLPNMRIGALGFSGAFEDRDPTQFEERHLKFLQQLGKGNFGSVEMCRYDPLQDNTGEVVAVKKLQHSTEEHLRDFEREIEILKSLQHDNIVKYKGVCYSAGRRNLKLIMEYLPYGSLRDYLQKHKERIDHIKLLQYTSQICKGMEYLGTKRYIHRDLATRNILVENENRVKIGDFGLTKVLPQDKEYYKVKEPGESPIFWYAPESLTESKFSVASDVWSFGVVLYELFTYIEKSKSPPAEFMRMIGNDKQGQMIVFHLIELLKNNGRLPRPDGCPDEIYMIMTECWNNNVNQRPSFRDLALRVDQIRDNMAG
EPHB2, sequence (P29323 whole entry, looked up): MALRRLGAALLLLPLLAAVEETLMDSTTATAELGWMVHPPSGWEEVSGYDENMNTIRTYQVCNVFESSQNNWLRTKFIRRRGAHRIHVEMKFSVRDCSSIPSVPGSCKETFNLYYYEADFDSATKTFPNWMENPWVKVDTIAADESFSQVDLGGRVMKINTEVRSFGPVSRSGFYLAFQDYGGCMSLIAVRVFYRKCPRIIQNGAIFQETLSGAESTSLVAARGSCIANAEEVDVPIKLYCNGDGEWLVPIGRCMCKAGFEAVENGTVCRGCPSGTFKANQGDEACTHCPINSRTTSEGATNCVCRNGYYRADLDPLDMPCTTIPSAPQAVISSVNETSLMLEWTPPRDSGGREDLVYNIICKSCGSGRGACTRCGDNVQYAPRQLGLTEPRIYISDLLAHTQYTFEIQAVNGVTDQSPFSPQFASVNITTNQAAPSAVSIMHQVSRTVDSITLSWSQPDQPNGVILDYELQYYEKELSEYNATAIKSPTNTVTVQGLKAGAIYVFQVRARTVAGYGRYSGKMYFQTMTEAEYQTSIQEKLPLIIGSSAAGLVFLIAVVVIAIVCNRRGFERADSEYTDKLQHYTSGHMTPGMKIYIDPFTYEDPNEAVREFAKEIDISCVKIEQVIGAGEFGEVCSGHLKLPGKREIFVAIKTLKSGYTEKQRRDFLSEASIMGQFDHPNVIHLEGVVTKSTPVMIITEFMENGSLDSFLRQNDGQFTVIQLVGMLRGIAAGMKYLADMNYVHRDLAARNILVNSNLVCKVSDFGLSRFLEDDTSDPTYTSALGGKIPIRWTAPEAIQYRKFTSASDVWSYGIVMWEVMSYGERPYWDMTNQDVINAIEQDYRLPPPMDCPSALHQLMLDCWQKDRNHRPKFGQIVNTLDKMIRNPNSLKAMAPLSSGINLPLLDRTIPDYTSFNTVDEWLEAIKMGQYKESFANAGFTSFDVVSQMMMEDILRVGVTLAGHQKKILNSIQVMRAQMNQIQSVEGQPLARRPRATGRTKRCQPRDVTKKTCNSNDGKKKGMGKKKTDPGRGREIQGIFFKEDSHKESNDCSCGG
MERTK, sequence (Q12866 whole entry, looked up): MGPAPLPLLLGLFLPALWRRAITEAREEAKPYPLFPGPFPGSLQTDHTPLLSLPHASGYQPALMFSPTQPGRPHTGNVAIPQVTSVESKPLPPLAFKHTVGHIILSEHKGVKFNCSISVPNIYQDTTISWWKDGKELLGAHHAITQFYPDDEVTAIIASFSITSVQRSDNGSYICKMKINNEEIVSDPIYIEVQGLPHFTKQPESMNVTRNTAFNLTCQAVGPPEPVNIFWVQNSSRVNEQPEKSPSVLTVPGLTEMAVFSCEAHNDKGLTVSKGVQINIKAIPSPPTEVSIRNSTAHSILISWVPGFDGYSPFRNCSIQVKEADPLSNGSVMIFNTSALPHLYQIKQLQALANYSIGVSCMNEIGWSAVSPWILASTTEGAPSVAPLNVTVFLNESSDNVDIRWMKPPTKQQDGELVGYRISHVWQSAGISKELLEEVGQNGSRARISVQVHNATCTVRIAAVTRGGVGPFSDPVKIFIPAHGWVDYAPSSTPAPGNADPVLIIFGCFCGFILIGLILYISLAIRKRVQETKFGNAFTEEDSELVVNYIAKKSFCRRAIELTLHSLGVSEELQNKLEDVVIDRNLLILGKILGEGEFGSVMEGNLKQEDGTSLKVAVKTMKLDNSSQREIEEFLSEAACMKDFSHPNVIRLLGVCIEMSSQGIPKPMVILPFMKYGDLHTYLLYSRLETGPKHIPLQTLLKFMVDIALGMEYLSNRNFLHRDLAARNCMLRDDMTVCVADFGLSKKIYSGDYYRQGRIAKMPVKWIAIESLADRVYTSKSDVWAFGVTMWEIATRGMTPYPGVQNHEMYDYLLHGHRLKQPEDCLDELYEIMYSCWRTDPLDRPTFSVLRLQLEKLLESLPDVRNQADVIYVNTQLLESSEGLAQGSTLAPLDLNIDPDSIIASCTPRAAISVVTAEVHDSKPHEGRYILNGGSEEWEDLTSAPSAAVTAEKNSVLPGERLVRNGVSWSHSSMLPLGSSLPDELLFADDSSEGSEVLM
EPHB1, sequence (P54762 whole entry, looked up): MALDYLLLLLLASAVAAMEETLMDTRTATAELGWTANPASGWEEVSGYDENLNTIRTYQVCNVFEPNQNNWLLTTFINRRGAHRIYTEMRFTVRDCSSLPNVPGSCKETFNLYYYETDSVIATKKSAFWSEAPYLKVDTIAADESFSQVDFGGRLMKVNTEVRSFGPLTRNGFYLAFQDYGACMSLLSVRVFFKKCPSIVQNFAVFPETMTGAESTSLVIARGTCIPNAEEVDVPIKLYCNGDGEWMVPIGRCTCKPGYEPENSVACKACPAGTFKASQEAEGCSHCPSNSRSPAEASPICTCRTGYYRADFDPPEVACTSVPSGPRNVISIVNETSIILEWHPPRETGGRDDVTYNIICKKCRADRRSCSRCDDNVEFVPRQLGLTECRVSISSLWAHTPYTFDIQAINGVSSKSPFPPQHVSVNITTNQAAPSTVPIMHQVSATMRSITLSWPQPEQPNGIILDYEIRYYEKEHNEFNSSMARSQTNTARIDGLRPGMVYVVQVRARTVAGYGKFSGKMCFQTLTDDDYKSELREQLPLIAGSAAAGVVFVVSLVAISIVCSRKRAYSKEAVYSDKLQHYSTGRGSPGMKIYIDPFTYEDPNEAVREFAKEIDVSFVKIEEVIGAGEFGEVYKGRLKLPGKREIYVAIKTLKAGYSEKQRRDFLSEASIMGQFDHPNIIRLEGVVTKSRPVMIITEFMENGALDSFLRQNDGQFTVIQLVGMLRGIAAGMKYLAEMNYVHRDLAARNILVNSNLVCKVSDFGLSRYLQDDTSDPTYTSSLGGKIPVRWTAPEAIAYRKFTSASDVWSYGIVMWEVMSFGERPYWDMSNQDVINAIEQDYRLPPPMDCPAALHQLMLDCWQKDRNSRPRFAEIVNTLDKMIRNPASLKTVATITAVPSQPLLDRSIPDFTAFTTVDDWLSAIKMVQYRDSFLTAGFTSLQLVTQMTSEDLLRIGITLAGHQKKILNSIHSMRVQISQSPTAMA
Hck, sequence (P08631 whole entry, looked up): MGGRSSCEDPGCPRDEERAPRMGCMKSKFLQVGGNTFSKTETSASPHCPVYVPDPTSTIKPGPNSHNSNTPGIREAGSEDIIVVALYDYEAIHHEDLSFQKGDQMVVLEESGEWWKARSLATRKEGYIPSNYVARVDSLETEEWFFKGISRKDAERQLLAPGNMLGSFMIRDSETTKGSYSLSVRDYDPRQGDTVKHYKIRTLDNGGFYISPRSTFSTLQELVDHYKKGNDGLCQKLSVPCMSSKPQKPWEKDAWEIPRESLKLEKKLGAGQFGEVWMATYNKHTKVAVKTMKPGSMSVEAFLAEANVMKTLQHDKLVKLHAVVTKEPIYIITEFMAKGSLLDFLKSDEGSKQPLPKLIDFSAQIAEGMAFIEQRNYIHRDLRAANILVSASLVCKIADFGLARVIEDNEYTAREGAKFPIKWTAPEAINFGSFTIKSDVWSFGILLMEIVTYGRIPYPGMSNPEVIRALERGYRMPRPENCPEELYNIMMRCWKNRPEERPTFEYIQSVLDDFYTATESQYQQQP

| Sequence | SH2 binding enrichment (SHP2-C SH2) | SH2 binding enrichment (c-Src SH2) | SH2 binding enrichment (Grb2 SH2) | phosphorylation enrichment (MERTK) | phosphorylation enrichment (c-Abl (mouse)) | phosphorylation enrichment (Jak2) | phosphorylation enrichment (c-Src) | phosphorylation enrichment (EPHB1) | phosphorylation enrichment (FGFR1) | phosphorylation enrichment (Fer (mouse)) | phosphorylation enrichment (Fyn) | phosphorylation enrichment (AncSZ) | phosphorylation enrichment (FGFR3) | phosphorylation enrichment (Fes) | phosphorylation enrichment (EPHB2) | phosphorylation enrichment (Hck) |
| --- | --- | --- | --- | --- | --- | --- | --- | --- | --- | --- | --- | --- | --- | --- | --- | --- |
| SQSPHYFRSGQ [GPATCH8_Y1038_R1043Q] | 0.533 | 0.484 | 0.869 | 0.419 | 0.456 | 0.538 | 0.427 | 0.435 | 0.366 | 0.359 | 0.345 | 0.551 | 0.405 | 0.524 | 0.316 | 0.325 |
| SRWKLYPRMLR [HAO1_Y50] | 0.585 | 0.392 | 0.79 | 0.447 | 0.524 | 0.873 | 0.442 | 0.478 | 0.394 | 0.341 | 0.405 | 0.81 | 0.482 | 0.619 | 0.442 | 0.415 |
| SSEYHYVGGFY [CTSC_Y347] | 4.12 | 1.49 | 0.998 | 6.87 | 14.9 | 2.69 | 3.33 | 9.7 | 13.4 | 2.24 | 3.79 | 3.53 | 11.3 | 0.787 | 12.9 | 4.79 |
| SSLEDYVRETN [GIMAP6_Y176_G171S] | 0.776 | 0.532 | 0.899 | 0.424 | 0.721 | 0.92 | 0.44 | 0.46 | 0.67 | 0.466 | 0.485 | 1.03 | 0.641 | 1.06 | 0.527 | 0.431 |
| SSMIDYNLLEK [MYOC_Y479_P481L] | 0.692 | 0.723 | 0.822 | 0.434 | 0.685 | 0.968 | 0.409 | 0.455 | 0.526 | 0.417 | 0.482 | 0.855 | 0.698 | 0.954 | 0.563 | 0.518 |
| SSPMKYQQNVS [EGFEM1P_Y160] | 0.661 | 0.432 | 0.878 | 0.398 | 0.562 | 0.623 | 0.397 | 0.319 | 0.334 | 0.392 | 0.339 | 0.541 | 0.408 | 0.592 | 0.352 | 0.412 |
| TEALFYTDDTA [ADPRS_Y75_YF] | 0.675 | 0.615 | 0.739 | 0.541 | 0.787 | 1.17 | 0.634 | 0.643 | 0.535 | 0.557 | 0.568 | 1.26 | 0.754 | 1.44 | 0.614 | 0.602 |
| TFHNTYHSQMR [IL1RAPL1_Y615] | 0.597 | 0.682 | 0.872 | 0.402 | 0.612 | 0.849 | 0.5 | 0.33 | 0.458 | 0.466 | 0.471 | 0.631 | 0.489 | 0.567 | 0.411 | 0.434 |
| TFVKSYTIHFS [F5_Y2153_M2148T_YF] | 0.729 | 0.537 | 0.97 | 0.434 | 0.873 | 1.28 | 0.447 | 0.599 | 0.517 | 0.521 | 0.468 | 1.04 | 0.899 | 1.29 | 0.468 | 0.424 |
| TFWKKYCTFWK [CCDC70_Y125_R126C] | 0.594 | 0.517 | 1.1 | 0.402 | 0.752 | 0.844 | 0.395 | 0.381 | 0.438 | 0.364 | 0.381 | 0.966 | 0.619 | 0.794 | 0.425 | 0.38 |
| TGDVQYRSSVR [FREM2_Y2158] | 0.631 | 0.433 | 1.02 | 0.398 | 0.459 | 0.408 | 0.357 | 0.292 | 0.468 | 0.385 | 0.331 | 0.529 | 0.397 | 0.534 | 0.423 | 0.357 |
| TGTQLYGRFGS [ITGA2B_Y384] | 0.569 | 0.418 | 0.779 | 0.732 | 0.404 | 0.608 | 7.68 | 0.351 | 0.451 | 0.389 | 10.6 | 0.619 | 0.513 | 0.654 | 0.498 | 7.54 |

Further lines, with some results ahead:

| SH2 binding enrichment (SHP2-C SH2) | SH2 binding enrichment (c-Src SH2) | SH2 binding enrichment (Grb2 SH2) | Sequence | phosphorylation enrichment (MERTK) | phosphorylation enrichment (c-Abl (mouse)) | phosphorylation enrichment (Jak2) | phosphorylation enrichment (c-Src) | phosphorylation enrichment (EPHB1) | phosphorylation enrichment (FGFR1) | phosphorylation enrichment (Fer (mouse)) | phosphorylation enrichment (Fyn) | phosphorylation enrichment (AncSZ) | phosphorylation enrichment (FGFR3) | phosphorylation enrichment (Fes) | phosphorylation enrichment (EPHB2) | phosphorylation enrichment (Hck) |
| --- | --- | --- | --- | --- | --- | --- | --- | --- | --- | --- | --- | --- | --- | --- | --- | --- |
| 0.61 | 0.407 | 0.711 | SQPASYQRRFL [PPIG_Y320_L324F] | 0.505 | 0.599 | 0.631 | 0.466 | 0.38 | 0.472 | 0.364 | 0.425 | 0.768 | 0.439 | 0.667 | 0.579 | 0.492 |
| 0.545 | 1.22 | 0.839 | SQSAKYDMAED [TTC21B_Y1213_I1208S] | 0.441 | 0.661 | 0.858 | 0.566 | 0.461 | 0.634 | 0.509 | 0.556 | 0.9 | 0.56 | 0.894 | 0.635 | 0.582 |
| 0.557 | 1.08 | 0.774 | SSTAMYSAPGR [PSMB1_Y8] | 1.66 | 6.02 | 0.58 | 0.631 | 0.497 | 0.45 | 0.857 | 0.484 | 0.75 | 0.464 | 0.524 | 0.674 | 2.28 |
| 0.764 | 0.986 | 0.834 | STDDGYIDLQF [TMEM230_Y29] | 0.513 | 0.695 | 1.19 | 0.488 | 0.701 | 1.01 | 0.584 | 0.564 | 1.22 | 1.01 | 1.09 | 0.472 | 0.521 |
| 0.527 | 0.427 | 0.809 | SVETPYGSVTF [NDRG2_Y47] | 0.52 | 0.635 | 0.606 | 4.56 | 0.501 | 0.397 | 5.24 | 5.93 | 0.82 | 0.53 | 0.928 | 0.438 | 2.16 |
| 0.731 | 0.448 | 0.838 | SVICTYSPALN [TP53_Y126_T123I] | 0.438 | 0.97 | 1.03 | 0.58 | 0.59 | 0.61 | 0.651 | 0.546 | 1.36 | 0.779 | 1.44 | 0.673 | 0.523 |
| 0.518 | 0.523 | 0.697 | SVTCTYSPALK [TP53_Y126_N131K] | 0.405 | 0.839 | 0.866 | 0.557 | 0.407 | 0.407 | 0.353 | 0.467 | 0.97 | 0.602 | 1.02 | 0.567 | 0.498 |
| 0.474 | 0.436 | 0.666 | SVTCTYSPALT [TP53_Y126_N131T] | 0.432 | 1.2 | 1.6 | 0.741 | 0.872 | 0.524 | 0.706 | 0.446 | 1.75 | 0.908 | 1.76 | 0.615 | 0.694 |
| 0.747 | 0.415 | 0.852 | SVTGTYSPALN [TP53_Y126_C124G] | 0.444 | 0.717 | 0.835 | 0.549 | 0.419 | 0.394 | 0.434 | 0.584 | 0.661 | 0.593 | 0.769 | 0.424 | 0.621 |
| 0.757 | 1.68 | 0.849 | SVVVHYEPPEV [TP53_Y220_P219H] | 0.71 | 1.72 | 0.758 | 0.485 | 0.699 | 0.525 | 1.86 | 0.484 | 1.15 | 0.647 | 1.02 | 0.616 | 0.537 |
| 0.997 | 0.67 | 1.03 | SVVVPYEPPEG [TP53_Y220_V225G] | 0.559 | 0.633 | 1.01 | 0.446 | 0.685 | 0.533 | 0.445 | 0.525 | 1.02 | 0.714 | 0.929 | 0.492 | 0.503 |
| 1.2 | 0.642 | 0.881 | TDIVAYSGWVQ [SPTBN2_Y477_R480W] | 0.621 | 1.75 | 0.82 | 1.4 | 0.684 | 0.573 | 1.38 | 0.824 | 1.03 | 0.779 | 1.02 | 0.532 | 1.53 |
| 0.604 | 0.401 | 0.787 | TDKLFYIFTPG [SLC27A4_Y243_S247P_YF] | 1.72 | 0.873 | 1.65 | 0.556 | 0.776 | 0.91 | 0.544 | 0.392 | 1.36 | 1.11 | 1.49 | 0.583 | 0.607 |
| 1.12 | 0.383 | 0.684 | TDKLFYIYTPG [SLC27A4_Y243_S247P] | 1.46 | 0.673 | 1.68 | 0.592 | 0.683 | 0.728 | 0.494 | 0.422 | 1.25 | 0.853 | 1.34 | 0.502 | 0.498 |
| 0.897 | 0.547 | 0.878 | TENAGYYFRVS | 0.714 | 1.04 | 3.16 | 0.421 | 0.491 | 0.82 | 0.677 | 0.407 | 1.44 | 1.14 | 2.21 | 1.02 | 0.728 |
| 0.695 | 0.419 | 0.818 | TGEKLYQHKEF [ZNF283_Y627_R629H] | 0.397 | 0.665 | 0.599 | 0.417 | 0.45 | 0.418 | 0.436 | 0.39 | 0.62 | 0.528 | 0.679 | 0.402 | 0.495 |
| 0.803 | 0.497 | 0.855 | TGILLYGLASR [QARS1_Y57] | 1.79 | 0.756 | 0.937 | 0.765 | 0.964 | 0.529 | 1.46 | 0.578 | 0.885 | 0.692 | 1.16 | 1.38 | 1.22 |
